Results on 6 molecules are retold here after paper PMC3504387 (Chemmedchem, 2012).

Experiment [1] concerns the target T1, GST–PPARα fusion protein (purified ligand binding domain of PPARα).
T1 sequence (Q07869 whole entry, species assumed, looked up): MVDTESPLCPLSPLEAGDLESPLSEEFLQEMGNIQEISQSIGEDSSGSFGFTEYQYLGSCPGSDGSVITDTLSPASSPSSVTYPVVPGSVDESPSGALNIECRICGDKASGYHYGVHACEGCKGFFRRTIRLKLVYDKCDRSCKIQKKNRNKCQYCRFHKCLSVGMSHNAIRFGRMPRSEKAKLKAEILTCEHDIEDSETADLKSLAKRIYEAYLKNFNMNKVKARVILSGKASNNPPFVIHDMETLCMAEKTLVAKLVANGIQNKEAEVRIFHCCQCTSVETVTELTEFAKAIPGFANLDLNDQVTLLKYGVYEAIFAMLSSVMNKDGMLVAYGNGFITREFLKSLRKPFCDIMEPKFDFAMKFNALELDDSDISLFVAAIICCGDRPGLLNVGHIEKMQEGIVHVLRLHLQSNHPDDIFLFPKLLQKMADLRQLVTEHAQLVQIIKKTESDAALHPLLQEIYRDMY
Briefly: FRET or BRET; homogeneous TR-FRET as a1, 12-concentration dose–response of edaglitazone; the EC50 is of the compound; delta ratio in % of the reference compound at 10 μM (RO4899100 for PPARα, edaglitazone for PPARγ). (BRET reads energy transfer from a luciferase to a nearby fluorophore.)

The target is the same in experiment [2]. The experiment is described as follows: FRET or BRET; homogeneous TR-FRET as a1, 12-concentration dose–response of aleglitazar; the EC50 is of the compound; delta ratio in % of the reference compound at 10 μM (RO4899100 for PPARα, edaglitazone for PPARγ).
Experiment [3] shares this target. Briefly: FRET or BRET; homogeneous TR-FRET as a1, 12-concentration dose–response of muraglitazar; the EC50 is of the compound; delta ratio in % of the reference compound at 10 μM (RO4899100 for PPARα, edaglitazone for PPARγ).
For experiment [4] the target is unchanged. Briefly: FRET or BRET; homogeneous TR-FRET as a1, 12-concentration dose–response of RO4899100; the EC50 is of the compound; delta ratio in % of the reference compound at 10 μM (RO4899100 for PPARα, edaglitazone for PPARγ).
The target is the same in experiment [5]. Briefly: FRET or BRET; homogeneous TR-FRET as a1, 12-concentration dose–response of tesaglitazar; the EC50 is of the compound; delta ratio in % of the reference compound at 10 μM (RO4899100 for PPARα, edaglitazone for PPARγ).
For experiment [6] the target is unchanged. The experiment is described as follows: FRET or BRET; homogeneous TR-FRET as a1, 12-concentration dose–response of fenofibric acid; the EC50 is of the compound; delta ratio in % of the reference compound RO4899100 at 10 μM.
For experiment [7], the target named is T2, GST–PPARγ fusion protein (purified ligand binding domain of PPARγ).
T2 chain: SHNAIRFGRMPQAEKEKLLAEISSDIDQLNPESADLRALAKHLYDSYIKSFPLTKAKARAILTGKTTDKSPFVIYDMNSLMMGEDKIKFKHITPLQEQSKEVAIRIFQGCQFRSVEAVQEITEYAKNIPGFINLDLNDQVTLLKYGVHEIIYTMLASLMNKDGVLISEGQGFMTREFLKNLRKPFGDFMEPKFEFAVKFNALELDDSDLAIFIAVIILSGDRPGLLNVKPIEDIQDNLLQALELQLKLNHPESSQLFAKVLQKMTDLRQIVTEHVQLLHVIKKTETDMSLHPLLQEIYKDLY
Briefly: FRET or BRET; homogeneous TR-FRET as a1, 12-concentration dose–response of aleglitazar; the EC50 is of the compound; delta ratio in % of the reference compound at 10 μM (RO4899100 for PPARα, edaglitazone for PPARγ). The following applies: both partners purified.

Experiment [8] deals with T2, GST–PPARγ fusion protein (purified …). Briefly: FRET or BRET; homogeneous TR-FRET as a1, 12-concentration dose–response of rosiglitazone; the EC50 is of the compound; delta ratio in % of the reference compound at 10 μM (RO4899100 for PPARα, edaglitazone for PPARγ). The following applies: both partners purified.
The target is the same in experiment [9]. The experiment is described as follows: FRET or BRET; homogeneous TR-FRET as a1, 12-concentration dose–response of edaglitazone; the EC50 is of the compound; delta ratio in % of the reference compound at 10 μM (RO4899100 for PPARα, edaglitazone for PPARγ). The following applies: both partners purified.
The target is the same in experiment [10]. The experiment is described as follows: FRET or BRET; homogeneous TR-FRET as a1, 12-concentration dose–response of muraglitazar; the EC50 is of the compound; delta ratio in % of the reference compound at 10 μM (RO4899100 for PPARα, edaglitazone for PPARγ). The following applies: both partners purified.
Experiment [11] has the same target. The experiment is described as follows: FRET or BRET; homogeneous TR-FRET as a1, 12-concentration dose–response of tesaglitazar; the EC50 is of the compound; delta ratio in % of the reference compound at 10 μM (RO4899100 for PPARα, edaglitazone for PPARγ). The following applies: both partners purified.
Experiment [12] has the same target. Briefly: FRET or BRET; homogeneous TR-FRET as a1, 12-concentration dose–response of farglitazar; the EC50 is of the compound; delta ratio in % of the reference compound edaglitazone at 10 μM. The conditions noted are these: both partners purified.
For experiment [13] the target is unchanged. Briefly: FRET or BRET; homogeneous TR-FRET as a1, 12-concentration dose–response of pioglitazone; the EC50 is of the compound; delta ratio in % of the reference compound at 10 μM (RO4899100 for PPARα, edaglitazone for PPARγ). The following applies: both partners purified.

Where no end group is shown, it is not given here. The star is where a group is joined. Biotin = O=C1N[C@H]2[C@H](CS[C@H]2CCCCC(=O)*)N1; Ahx = NCCCCCC(=O)O

B1: TIF2_M3 cofactor peptide (transcriptional intermediary factor 2, motif 3) (peptide)
peptide: {Biotin-Ahx}-SPKKKENALLRYLLDKDDTK
As for B1, in experiment [1], the EC50 of edaglitazone for recruitment came out at 3670 nM and the delta ratio with edaglitazone is 32%. For the same molecule, in [2], the EC50 of aleglitazar for recruitment was 2.3 nM and the delta ratio with aleglitazar amounted to 56%. Besides, in experiment [3], the EC50 of muraglitazar for recruitment is 88.9 nM and the delta ratio with muraglitazar stood at 29%. In addition, in experiment [4], the EC50 of RO4899100 for recruitment worked out at 12.7 nM and the delta ratio with RO4899100 stood at 100%. For the same molecule, in [5], the EC50 of tesaglitazar for recruitment turned out to be 377 nM and the delta ratio with tesaglitazar stood at 53%. In [6], the EC50 of fenofibric acid for recruitment is 1290 nM and the delta ratio with fenofibric acid stood at 25%.

B2: TIF2_M2 cofactor peptide (transcriptional intermediary factor 2, motif 2) (peptide)
peptide: {Biotin-Ahx}-STHGTSLKEKHKILHRLLQDS
B2: in experiment [1], the EC50 of edaglitazone for recruitment was determined as 294 nM and the delta ratio with edaglitazone was found to be 21%. Further, in experiment [2], the EC50 of aleglitazar for recruitment is 1.6 nM and the delta ratio with aleglitazar worked out at 53%. In addition, in [3], the EC50 of muraglitazar for recruitment worked out at 34 nM and the delta ratio with muraglitazar worked out at 33%. Moreover, in [4], the EC50 of RO4899100 for recruitment worked out at 5.9 nM and the delta ratio with RO4899100 turned out to be 100%. For the same molecule, in experiment [5], the EC50 of tesaglitazar for recruitment was 182 nM and the delta ratio with tesaglitazar was found to be 54%. Further, in [6], the EC50 of fenofibric acid for recruitment was determined as 5200 nM and the delta ratio with fenofibric acid stood at 44%.

B3: RAC3_M2 cofactor peptide (receptor-associated co-activator 3, motif 2) (peptide)
peptide: {Biotin-Ahx}-SNMHGSLLQEKHRILHKLLQNGNSP
notes: source: synthetic peptide (Jerini or Biosynthan, Berlin)
For B3, the “EC50 of aleglitazar for recruitment” value in [7] was determined as 7.4 nM. For the same molecule, in [8], the “EC50 of rosiglitazone for recruitment” value stood at 125 nM. Besides, the “EC50 of edaglitazone for recruitment” value in experiment [9] came to 22.7 nM. Besides, the “EC50 of muraglitazar for recruitment” value in experiment [10] turned out to be 16.5 nM. In [11], the “EC50 of tesaglitazar for recruitment” value came out at 110 nM. Also, the “EC50 of farglitazar for recruitment” value in experiment [12] turned out to be 6.5 nM. Besides, the “EC50 of pioglitazone for recruitment” value in [13] was found to be 1070 nM.

B4: TIF2_M1 cofactor peptide (transcriptional intermediary factor 2, motif 1) (peptide)
peptide: {Biotin-Ahx}-SRLHDSKGQTKLLQLLTTKSD
notes: transcriptional intermediary factor 2 (TIF2), motif 1, residues 630-650; source: synthetic peptide (Jerini or Biosynthan, Berlin)
B4: in [1], the EC50 of edaglitazone for recruitment amounted to 945 nM and the delta ratio with edaglitazone is 26%. In experiment [7], the “EC50 of aleglitazar for recruitment” value was found to be 43.2 nM. The “EC50 of rosiglitazone for recruitment” value in experiment [8] stood at 951 nM. The “EC50 of edaglitazone for recruitment” value in experiment [9] stood at 86.5 nM. The “EC50 of muraglitazar for recruitment” value in experiment [10] was found to be 94.3 nM. Also, the “EC50 of tesaglitazar for recruitment” value in [11] was 274 nM. In experiment [12], the “EC50 of farglitazar for recruitment” value worked out at 16.1 nM. Moreover, in experiment [2], the EC50 of aleglitazar for recruitment was 2.1 nM and the delta ratio with aleglitazar was found to be 53%. In experiment [3], the EC50 of muraglitazar for recruitment was 96.5 nM and the delta ratio with muraglitazar was 31%. In addition, the EC50 of RO4899100 for recruitment in experiment [4] came out at 8.6 nM. Also, in experiment [5], the EC50 of tesaglitazar for recruitment amounted to 326 nM and the delta ratio with tesaglitazar was found to be 70%. In addition, in [6], the EC50 of fenofibric acid for recruitment stood at 2160 nM and the delta ratio with fenofibric acid came out at 34%.

B5: RAC3_M3 cofactor peptide (receptor-associated co-activator 3, motif 3) (peptide)
peptide: {Biotin-Ahx}-PKKENNALLRYLLDRDDPSDV
notes: as for B3
For B5, in experiment [1], the EC50 of edaglitazone for recruitment was determined as 1920 nM and the delta ratio with edaglitazone is 24%. Besides, in [7], the “EC50 of aleglitazar for recruitment” value turned out to be 9.5 nM. Also, the “EC50 of rosiglitazone for recruitment” value in experiment [8] turned out to be 271 nM. The “EC50 of edaglitazone for recruitment” value in experiment [9] is 33.1 nM. The “EC50 of muraglitazar for recruitment” value in [10] worked out at 39.5 nM. In addition, the “EC50 of tesaglitazar for recruitment” value in experiment [11] was 233 nM. In [2], the EC50 of aleglitazar for recruitment stood at 4.4 nM and the delta ratio with aleglitazar worked out at 62%. In addition, in experiment [3], the EC50 of muraglitazar for recruitment stood at 330 nM and the delta ratio with muraglitazar came to 35%. Moreover, in experiment [13], the “EC50 of pioglitazone for recruitment” value came to 1860 nM. Besides, the EC50 of RO4899100 for recruitment in [4] stood at 25.9 nM. For the same molecule, in experiment [5], the EC50 of tesaglitazar for recruitment turned out to be 941 nM and the delta ratio with tesaglitazar was 60%.

B6: SMRT ID2 cofactor peptide (silencing mediator of retinoid and thyroid hormone receptors, interaction domain 2) (peptide)
peptide: {Biotin-Ahx}-AVQEHASTNMGLEAIIRKALMGKYD
notes: silencing mediator of retinoid and thyroid hormone receptors (SMRT), ID2, residues 2331-2355; also called SMRT2; source: synthetic peptide (Jerini or Biosynthan, Berlin)
As to B6, the values for the EC50 of edaglitazone for displacement in experiment [1] and in experiment [9] were 790 nM and 41.6 nM, respectively. Further, in [1], the delta ratio with edaglitazone was -20%. The results for the “EC50 of aleglitazar for displacement” value in experiment [7] and in experiment [2] were 14.4 nM and 14.1 nM, respectively. Besides, in experiment [8], the “EC50 of rosiglitazone for displacement” value was 333 nM. Further, the “EC50 of muraglitazar for displacement” value in experiment [10] is 60.3 nM; in experiment [3], 563 nM. The “EC50 of tesaglitazar for displacement” value in [11] is 346 nM; in [5], 1780 nM. In addition, in experiment [12], the “EC50 of farglitazar for displacement” value came to 11.6 nM. Also, the delta ratio with aleglitazar in experiment [2] is -51%. Also, the delta ratio with muraglitazar in [3] is -28%. Further, the “EC50 of pioglitazone for displacement” value in [13] amounted to 3700 nM. Further, in experiment [4], the EC50 of RO4899100 for displacement was 108 nM. Further, the delta ratio with tesaglitazar in experiment [5] was -26%.
